Measured values reported in publication PMC5103362 (Autophagy, 2016).

T1: Vps15 (subunit of the purified yeast complex I) (S. cerevisiae, UniProt P22219 1-1454)
T1 construct: Vps15, S. cerevisiae
T1 sequence (looked up): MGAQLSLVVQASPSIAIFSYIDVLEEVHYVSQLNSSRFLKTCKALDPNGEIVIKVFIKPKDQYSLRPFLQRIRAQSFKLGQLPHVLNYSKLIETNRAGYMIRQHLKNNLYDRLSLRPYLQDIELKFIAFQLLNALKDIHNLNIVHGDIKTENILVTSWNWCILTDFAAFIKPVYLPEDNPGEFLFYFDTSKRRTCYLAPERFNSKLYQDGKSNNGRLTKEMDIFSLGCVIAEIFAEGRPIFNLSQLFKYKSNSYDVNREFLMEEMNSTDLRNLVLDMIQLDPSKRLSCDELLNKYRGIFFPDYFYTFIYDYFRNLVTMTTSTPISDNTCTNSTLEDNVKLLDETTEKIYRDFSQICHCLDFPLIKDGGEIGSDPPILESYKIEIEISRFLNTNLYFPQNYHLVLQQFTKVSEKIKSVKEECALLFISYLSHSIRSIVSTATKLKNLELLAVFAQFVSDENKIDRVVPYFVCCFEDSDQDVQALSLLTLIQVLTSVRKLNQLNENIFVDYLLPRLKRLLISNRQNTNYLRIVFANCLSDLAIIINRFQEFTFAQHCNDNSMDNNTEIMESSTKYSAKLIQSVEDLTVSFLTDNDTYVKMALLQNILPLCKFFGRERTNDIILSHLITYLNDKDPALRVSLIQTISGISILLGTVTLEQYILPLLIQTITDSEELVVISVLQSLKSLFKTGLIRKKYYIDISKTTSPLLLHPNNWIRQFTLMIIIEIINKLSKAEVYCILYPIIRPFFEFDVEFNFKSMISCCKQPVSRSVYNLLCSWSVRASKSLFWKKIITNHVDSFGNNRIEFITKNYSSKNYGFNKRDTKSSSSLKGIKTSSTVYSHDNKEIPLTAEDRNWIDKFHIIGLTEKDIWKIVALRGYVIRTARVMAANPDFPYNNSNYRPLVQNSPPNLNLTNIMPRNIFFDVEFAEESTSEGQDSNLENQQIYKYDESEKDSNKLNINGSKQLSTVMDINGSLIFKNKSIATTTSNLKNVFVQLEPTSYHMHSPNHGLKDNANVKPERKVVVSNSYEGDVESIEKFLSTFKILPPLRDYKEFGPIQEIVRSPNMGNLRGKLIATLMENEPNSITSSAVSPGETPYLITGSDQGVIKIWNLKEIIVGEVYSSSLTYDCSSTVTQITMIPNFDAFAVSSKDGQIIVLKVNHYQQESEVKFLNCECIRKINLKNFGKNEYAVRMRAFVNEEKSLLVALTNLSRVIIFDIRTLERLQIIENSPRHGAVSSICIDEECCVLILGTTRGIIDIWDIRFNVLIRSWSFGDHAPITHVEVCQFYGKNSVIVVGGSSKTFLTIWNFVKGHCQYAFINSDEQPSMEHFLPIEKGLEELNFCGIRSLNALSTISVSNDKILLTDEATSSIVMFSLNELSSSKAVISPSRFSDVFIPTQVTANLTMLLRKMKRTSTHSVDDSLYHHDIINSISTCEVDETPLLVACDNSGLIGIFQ

B1: Vps30/Atg6 (subunit of the purified yeast complex I) (natural protein, S. cerevisiae, UniProt Q02948 1-557, looked up)
chain: MKCQTCHLPLQLDPSLEGLSLTQRNLLLSNNSIITATNENVISNKGIEAADNCGPQIPKERLRRLGEIQNIKDLNLKDDKLITDSFVFLNHDDDDNANITSNSREDQRYGNANGNDNKKANSDTSDGTSTFRDHDEEEQEATDEDENQQIQLNSKTLSTQVNAMTNVFNILSSQTNIDFPICQDCCNILINRLKSEYDDAIKERDTYAQFLSKLESQNKEISESNKEKQYSHNLSEKENLKKEEERLLDQLLRLEMTDDDLDGELVRLQEKKVQLENEKLQKLSDQNLMDLNNIQFNKNLQSLKLQYELSLNQLDKLRKINIFNATFKISHSGPFATINGLRLGSIPESVVPWKEINAALGQLILLLATINKNLKINLVDYELQPMGSFSKIKKRMVNSVEYNNSTTNAPGDWLILPVYYDENFNLGRIFRKETKFDKSLETTLEIISEITRQLSTIASSYSSQTLTTSQDESSMNNANDVENSTSILELPYIMNKDKINGLSVKLHGSSPNLEWTTAMKFLLTNVKWLLAFSSNLLSKSITLSPTVNYNDKTISGN
notes: Vps30/Atg6, S. cerevisiae
B2: Atg38 stalkΔ (182 to 209 deleted), recombinant (natural protein, S. cerevisiae, UniProt Q05789 1-226, looked up)
chain: MSTLAEVYTIIEDAEQECRKGDFTNAKAKYQEAIEVLGPQNENLSQNKLSSDVTQAIDLLKQDITAKIQELELLIEKQSSEENNIGMVNNNMLIGSVILNNKSPINGISNARNWDNPAYQDTLSPINDPLLMSILNRLQFNLNNDIQLKTEGGKNSKNSEMKINLRLEQFKKELVLYEQKKWDSLVESAKQRRDKQKN
notes: GST fusions were eluted with glutathione or cut with TEV as needed; likely cut for SEC-MALS; source: E. coli, purified (Glutathione Sepharose, S75)
B3: Atg38 capΔ (123 to 181 deleted), recombinant (natural protein, S. cerevisiae, UniProt Q05789 1-226, looked up)
chain: MSTLAEVYTIIEDAEQECRKGDFTNAKAKYQEAIEVLGPQNENLSQNKLSSDVTQAIDLLKQDITAKIQELELLIEKQSSEENNIGMVNNNMLIGSVILNNKSPINGISNARNWDNPAYQDTFKEYGMKIDEITKENKKLANEIGRLRERWDSLVESAKQRRDKQKN
notes: as for B2
B4: Vps34 (subunit of the purified yeast complex I) (enzyme, S. cerevisiae, UniProt P22543 1-875, looked up)
chain: MSLNNITFCVSQDLDVPLKVKIKSLEGHKPLLKPSQKILNPELMLIGSNVFPSSDLIVSLQVFDKERNRNLTLPIYTPYIPFRNSRTWDYWLTLPIRIKQLTFSSHLRIILWEYNGSKQIPFFNLETSIFNLKDCTLKRGFESLKFRYDVIDHCEVVTDNKDQENLNKYFQGEFTRLPWLDEITISKLRKQRENRTWPQGTFVLNLEFPMLELPVVFIEREIMNTQMNIPTLKNNPGLSTDLREPNRNDPQIKISLGDKYHSTLKFYDPDQPNNDPIEEKYRRLERASKNANLDKQVKPDIKKRDYLNKIINYPPGTKLTAHEKGSIWKYRYYLMNNKKALTKLLQSTNLREESERVEVLELMDSWAEIDIDDALELLGSTFKNLSVRSYAVNRLKKASDKELELYLLQLVEAVCFENLSTFSDKSNSEFTIVDAVSSQKLSGDSMLLSTSHANQKLLKSISSESETSGTESLPIVISPLAEFLIRRALVNPRLGSFFYWYLKSESEDKPYLDQILSSFWSRLDKKSRNILNDQVRLINVLRECCETIKRLKDTTAKKMELLVHLLETKVRPLVKVRPIALPLDPDVLICDVCPETSKVFKSSLSPLKITFKTTLNQPYHLMFKVGDDLRQDQLVVQIISLMNELLKNENVDLKLTPYKILATGPQEGAIEFIPNDTLASILSKYHGILGYLKLHYPDENATLGVQGWVLDNFVKSCAGYCVITYILGVGDRHLDNLLVTPDGHFFHADFGYILGQDPKPFPPLMKLPPQIIEAFGGAESSNYDKFRSYCFVAYSILRRNAGLILNLFELMKTSNIPDIRIDPNGAILRVRERFNLNMSEEDATVHFQNLINDSVNALLPIVIDHLHNLAQYWRT
notes: Vps34, S. cerevisiae
B5: Atg14 (subunit of the purified yeast complex I) (natural protein, S. cerevisiae, UniProt P38270 1-344, looked up)
chain: MHCPICHHRAHVVYCAHCINTSPSLLLKLKLDLILLKDENKELNGKVEQILNEAMNYDQLDIKRMEKKKDPLMNSLMKLDVLRMKKNNNLIRHRIEQLNERIYSKRNHISELKVEIDNYKCYKVGTGTDKLREQVEISDAKNKLAQVSKICESARDYKLNLLNNWFVIQKLQDNFQIPFAIAFQPLISLKNFRILPLAITNDSINIMWKYISFFSDILMIKLPYTNKICEQPMFEFSDSIQTVVQRLIKLIINILQICRHLKLVPSTPMDIPWLLDQYDVDGLFYNMVKRNKMKCRSVSLYWTFGMLYSMVLDNMNNPQRGHPARRTAPPPTVTGPHDRWYVVG
notes: Atg14, S. cerevisiae
B6: GST-Atg38 (1 to 78) (domain or fragment, S. cerevisiae, UniProt Q05789 1-78, looked up)
chain: MSTLAEVYTIIEDAEQECRKGDFTNAKAKYQEAIEVLGPQNENLSQNKLSSDVTQAIDLLKQDITAKIQELELLIEKQ
notes: Atg38, S. cerevisiae, MIT domain, residues 1 to 78; also called MIT domain alone; source: E. coli, purified (Glutathione Sepharose, eluted with glutathione); not shown: GST, N-terminal, kept
B7: Atg38 tailΔ (210 to 226 deleted), recombinant (domain or fragment, S. cerevisiae, UniProt Q05789 1-209, looked up)
chain: MSTLAEVYTIIEDAEQECRKGDFTNAKAKYQEAIEVLGPQNENLSQNKLSSDVTQAIDLLKQDITAKIQELELLIEKQSSEENNIGMVNNNMLIGSVILNNKSPINGISNARNWDNPAYQDTLSPINDPLLMSILNRLQFNLNNDIQLKTEGGKNSKNSEMKINLRLEQFKKELVLYEQKKFKEYGMKIDEITKENKKLANEIGRLRER
notes: Atg38, S. cerevisiae; GST fusions were eluted with glutathione or cut with TEV as needed; likely cut for SEC-MALS; source: E. coli, purified (Glutathione Sepharose, S75)
B8: Atg38 C-terminal homodimerization domain (crystallized region, residues 119 to 211) (domain or fragment, S. cerevisiae, UniProt Q05789 119-211, looked up)
chain: YQDTLSPINDPLLMSILNRLQFNLNNDIQLKTEGGKNSKNSEMKINLRLEQFKKELVLYEQKKFKEYGMKIDEITKENKKLANEIGRLRERWD
notes: Atg38, S. cerevisiae, crystallized region, residues 119 to 211; Limits are those seen in the crystal; the proteolysed protein was not purified further; A selenomethionine derivative was used for phasing; also called Atg38 C-terminal domain; C-terminal region of Atg38; source: E. coli, purified full-length Atg38 subjected to limited proteolysis with subtilisin

Columns and labels:
[1] = target: T1, Vps15 (subunit of the purified yeast …); assay: SEC-MALS; purified yeast complex I (co-expressed, co-purified) and gel-filtration purified complex I + Atg38 on S200 10/30; 20 mM Tris pH 8.8, 150 mM NaCl, 1 mM TCEP; conditions: both partners purified
[2] = target: the molecule itself; assay: SEC-MALS; Atg38 full-length, MIT domain and deletion variants alone on S75 10/30; 20 mM Tris pH 7.9, 300 mM NaCl, 1 mM TCEP
[3] = target: T2, yeast complex I (Vps15-Vps34-Vps30-Atg14 heterotetramer) (S. cerevisiae, UniProt P22219 1-1454; P22543 1-875; Q02948 1-557; P38270 1-344); assay: pull-down; GST affinity isolation: GST fusions of Atg38 on glutathione Sepharose, purified yeast complex I at 1.78 µM with 10-fold excess of GST fusion; 50 mM Tris pH 8.8, 150 mM NaCl, 1 mM TCEP, on ice 90 min; stained gel; conditions: both partners purified
T2 construct: Vps15, S. cerevisiae, subunit of complex I; Vps34, S. cerevisiae, subunit of complex I; Vps30/Atg6, S. cerevisiae, subunit of complex I; Atg14, S. cerevisiae, subunit of complex I; expected mass 379 kDa; also called CI; heterotetrameric S. cerevisiae complex I; copies: 1 + 1 + 1 + 1

[4] = target: the molecule itself; assay: crystal structure; full-length Atg38 after limited proteolysis with subtilisin; 2.2 Å, MAD with selenomethionine protein

Binder	stoichiometry N [1]	stoichiometry N [2]	further results
B1	1	–	–
B2	–	2	–
B3	–	2	–
B4	1	–	–
B5	1	–	–
B6	–	–	binding result [3]: binds
B7	–	2	–
B8	–	–	binding result [4]: binds
